Measured values: the supplement of paper PMC10724198
± gives the standard deviation of the averaged measurements.

Test system: Saccharomyces cerevisiae
Assay: protein stability index of tFT-peptide fusion (C-terminal peptide) (PSI (0-1 scale)); higher = more stable (slower turnover)
Conditions: temperature: 30 C
Experimental: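 MPS profiling in S. cerevisiae of the yeast C-terminome library: the last 12 aa of each annotated ORF are fused to the C-terminus of a sfGFP-mCherry timer, after a GGGS linker. Cells are FACS-sorted into 8 mCherry/sfGFP bins and deep-sequenced. PSI runs from 0 (unstable) to 1 (stable); wild type and das1Δ backgrounds, two technical replicates each.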

[1] = genetic background: das1 deletion

For NGHVSKKAKVTK [LYS21 C-terminal 12 aa], the protein stability index [1] was 0.6885 ± 0.0043 and the protein stability index (genetic background: wild type) was 0.667 ± 0.021.

For ETAENIAKYIRN [NPA3 C-terminal 12 aa], the protein stability index [1] was 0.682 ± 0.024 and the protein stability index (genetic background: wild type) was 0.661 ± 0.035.

Work on DEQKHNENENSR [RPO21 C-terminal 12 aa] yielded a protein stability index [1] of 0.693 ± 0.022 and a protein stability index (genetic background: wild type) of 0.708 ± 0.021.

Work on SPEQLKVSLKWH [SKM1 C-terminal 12 aa] yielded a protein stability index [1] of 0.718 ± 0.01 and a protein stability index (genetic background: wild type) of 0.699 ± 0.022.

EQNFHFQFPPTN [IOC2 C-terminal 12 aa] was tested, and the protein stability index [1] was 0.7147 ± 0.0049 and the protein stability index (genetic background: wild type) was 0.729 ± 0.021.

NTLRISTVGQEF [PYK2 C-terminal 12 aa] was tested, and the protein stability index [1] was 0.7106 ± 0.0029 and the protein stability index (genetic background: wild type) was 0.707 ± 0.0074.

With CGGRPQYGVMFA [YDR249C C-terminal 12 aa] the protein stability index [1] was 0.6887 ± 0.0013 and the protein stability index (genetic background: wild type) was 0.702 ± 0.023.

Sequence EAVKNDDIQIFG [BFR2 C-terminal 12 aa] has a protein stability index [1] of 0.6921 ± 0.0018 and a protein stability index (genetic background: wild type) of 0.722 ± 0.031.

Work on PDEISFLQQFTS [KAP104 C-terminal 12 aa] yielded a protein stability index [1] of 0.721 ± 0.0076 and a protein stability index (genetic background: wild type) of 0.676 ± 0.023.

Sequence GNINDDDDGFFD [PLP2 C-terminal 12 aa] has a protein stability index [1] of 0.724 ± 0.021 and a protein stability index (genetic background: wild type) of 0.698 ± 0.019.

With RIPKELTGTVRF [GAT4 C-terminal 12 aa] the protein stability index [1] was 0.705 ± 0.018 and the protein stability index (genetic background: wild type) was 0.672 ± 0.014.

For RESINEAKLRHT [BDH2 C-terminal 12 aa], the protein stability index [1] was 0.676 ± 0.02 and the protein stability index (genetic background: wild type) was 0.63 ± 0.011.

DDILSHGFEPLA [HTC1 C-terminal 12 aa] showed a protein stability index [1] of 0.7177 ± 0.0033 and a protein stability index (genetic background: wild type) of 0.706 ± 0.027.

For TEAMNSEIDGTK [ATG16 C-terminal 12 aa], the protein stability index [1] was 0.686 ± 0.017 and the protein stability index (genetic background: wild type) was 0.703 ± 0.042.

With QKYQVYKNFETL [UTR4 C-terminal 12 aa] the protein stability index [1] was 0.7 ± 0.015 and the protein stability index (genetic background: wild type) was 0.688 ± 0.0077.

CSGIPSGSGASC [PGU1 C-terminal 12 aa] showed a protein stability index [1] of 0.691 ± 0.011 and a protein stability index (genetic background: wild type) of 0.673 ± 0.076.

SGGVLDSGDVSL [YGR182C C-terminal 12 aa] showed a protein stability index [1] of 0.684 ± 0.022 and a protein stability index (genetic background: wild type) of 0.661 ± 0.029.

Sequence WDKQKALERRSV [CNS1 C-terminal 12 aa] has a protein stability index [1] of 0.723 ± 0.015 and a protein stability index (genetic background: wild type) of 0.705 ± 0.024.

With “ICFREFFDRVET [YJL077W-B C-terminal 12 aa]” the protein stability index [1] was 0.714 ± 0.056 and the protein stability index (genetic background: wild type) was 0.6732 ± 0.0058.

In the case of NIAPFPFFGKRR [PMD1 C-terminal 12 aa], the protein stability index [1] is reported as 0.6837 ± 0.00075 and the protein stability index (genetic background: wild type) is reported as 0.674 ± 0.02.

For “HQNENMFLTELY [YDL247W-A C-terminal 12 aa]”, the protein stability index [1] was 0.7214 ± 0.0031 and the protein stability index (genetic background: wild type) was 0.707 ± 0.067.

With GYSPKPISKKEE [ALE1 C-terminal 12 aa] the protein stability index [1] was 0.719 ± 0.011 and the protein stability index (genetic background: wild type) was 0.648 ± 0.012.

With DDCLIELPNGNI [RRN9 C-terminal 12 aa] the protein stability index [1] was 0.6888 ± 0.0021 and the protein stability index (genetic background: wild type) was 0.703 ± 0.041.

Work on IARPFELKYFGR [FCY21 C-terminal 12 aa] yielded a protein stability index [1] of 0.7199 ± 0.006 and a protein stability index (genetic background: wild type) of 0.718 ± 0.001.

Work on LTPADLQFLFNN [RAD16 C-terminal 12 aa] yielded a protein stability index [1] of 0.72 ± 0.013 and a protein stability index (genetic background: wild type) of 0.708 ± 0.017.

Sequence IVSFLSDETKSP [ECM18 C-terminal 12 aa] has a protein stability index [1] of 0.7282 ± 0.0009 and a protein stability index (genetic background: wild type) of 0.714 ± 0.011.

For KLDIPVSFLLAA [YBL053W C-terminal 12 aa], the protein stability index [1] was 0.443 ± 0.0065 and the protein stability index (genetic background: wild type) was 0.467 ± 0.044.

In the case of VLIKHDHTNTHI [MMT1 C-terminal 12 aa], the protein stability index [1] is reported as 0.703 ± 0.028 and the protein stability index (genetic background: wild type) is reported as 0.701 ± 0.034.

In the case of “LGFIQNSTIVCQ [YMR306C-A C-terminal 12 aa]”, the protein stability index [1] is reported as 0.467 ± 0.028 and the protein stability index (genetic background: wild type) is reported as 0.494 ± 0.019.

ETMVRIRVDGNE [DAD2 C-terminal 12 aa] gave a protein stability index [1] of 0.665 ± 0.027 and a protein stability index (genetic background: wild type) of 0.676 ± 0.025.

RSLLRKSKPLQA [RPM2 C-terminal 12 aa] was tested, and the protein stability index [1] was 0.675 ± 0.024 and the protein stability index (genetic background: wild type) was 0.639 ± 0.018.

Work on “PHYAGCLEDIIF [YER066C-A C-terminal 12 aa]” yielded a protein stability index [1] of 0.719 ± 0.046 and a protein stability index (genetic background: wild type) of 0.74 ± 0.035.

Sequence AHYNNGLQWFSD [EMC4 C-terminal 12 aa] has a protein stability index [1] of 0.7084 ± 0.0065 and a protein stability index (genetic background: wild type) of 0.728 ± 0.014.

FTAVLGTYLLTL [SDH3 C-terminal 12 aa] showed a protein stability index [1] of 0.6494 ± 0.005 and a protein stability index (genetic background: wild type) of 0.645 ± 0.0016.
